Reference: patent publication US20250288652A1, “BACTERIOPHAGE LYSINE, CHIMERA THEREOF AND APPLICATION THEREOF” (priority 2021, published 2025)
“And” between values parts separate entries of the source, which are not always exact repeats. Identical values can stand only once.

Columns and labels:
[1] = test system: biofilm-associated P. acnes strain 10; experiment: Killing of biofilm-associated P. acnes (CFU count); type: cell-based, Propionibacterium acnes; details: strain 10 biofilm, treated overnight at 25° C. under anaerobic conditions
Protocol: Strain 10 with an OD600 of 1.0 was added to a 96-well polystyrene plate to inoculate the biofilm overnight in an anaerobic gas mixture. The supernatant was removed and the wells were gently rinsed with 0.9% NaCl. Biofilm formation medium (RCM+5% glucose) was added to allow biofilm growth overnight in the anaerobic gas mixture. The medium was removed and the wells were gently rinsed with 0.9% NaCl. Biofilms were then treated with buffer or PACL403 overnight at 25° C. under anaerobic conditions. The buffer or PACL403 was removed and the wells were rinsed with 0.9% NaCl. Resuspend in 0.9% NaCl, plate on RCM agar and count biofilm-associated CFU.

[2] = test system: Propionibacterium acnes; experiment: MIC of selected lysin after single-step purification, Example 8; type: cell-based; details: single-step purified lysin
Protocol: Express PACL 10, 390, 391, 392, 403 and 404 according to the method of Examples 1-4, and perform the following single-step purification: put Escherichia coli BL21 (DE3) containing each recombinant expression plasmid in the self-induction medium incubate at 37° C., 300 rpm for 3 hours, then at 18° C., 300 rpm for 16-18 hours. Cells were collected by centrifugation and lysed by homogenizatoin under high pressure. Clarified lysate from 1 L of E. coli culture medium expressing the protein of interest was loaded onto a 26 mm/200 mm column containing 70 mL of purification resin. The lysin was purified according to the conditions in Table 8-1, and the purity determination of the lyase after single-step purification is shown in FIG. 5. These lysin are used to determine the minimal inhibitory concentration (MIC).
The minimal inhibitory concentration (MIC) determination method is as follows. Propionibacterium acnes is streaked on Fortified Clostridium Agar (Fortified Clostridium Medium RCM with 1.5% agar, RCM was prepared according to the revised recipe, per liter—10 g acid hydrolyzed casein, 10 g beef extract, 3 g yeast extract, 5 g D—glucose, 5 g sodium chloride, 3 g sodium acetate, 0.5 g L-cysteine hydrochloride). Plates were incubated anaerobically at 37° C. for 72 hours. The inoculum for MIC determination was first prepared by resuspending single clones from RCA in 0.9% saline to an OD600 of 0.05, corresponding to 10^7 colony-forming units per milliliter (cfu/mL). The suspension was diluted 20-fold in RCM to an inoculum of 5*10^5 cfu/mL. Two-fold serial dilutions of each lyase were prepared in 0.9% saline and added not to exceed one-tenth of the total culture volume. Cultures were grown anaerobically at 37° C. for 48-72 hours. The MIC is the lowest concentration of lyase at which no growth of P. acnes can be observed with the naked eye.

[3] = test system: Propionibacterium acnes; experiment: Minimum inhibitory concentration (MIC) determination, Example 6; type: cell-based; details: listed as #10
Protocol: (§1) The minimal inhibitory concentration (MIC) determination method is as follows. First prepare a colony suspension in 0.9% saline to an OD600 of 0.05 to prepare an inoculum, which corresponds to 10^7 colony-forming units per mL (cfu/mL). The suspension was diluted 20 times in agar-free enhanced Clostridium medium (RCM) to an inoculum of 5*10^5 cfu/mL. Prepare 2-fold serial dilutions of PACL10 or vancomycin with 0.9% saline and add no more than one-tenth of the total culture. Cultures were grown anaerobically at 37° C. for 3 days. The MIC is the lowest concentration of PACL10 or vancomycin at which no growth of P. acnes can be observed with the naked eye. The minimum bactericidal concentration (MBC) was determined by subculturing the above cultures on enhanced Clostridium agar (RCA) plates containing 0.1% Tween-80. MBC is the lowest concentration of PACL10 or vancomycin at which no P. acnes colonies are seen on the enhanced Clostridium agar (RCA) plate.

[4] = test system: P. acnes 34A strain; experiment: Time sterilization (time killing) test; type: cell-based, Propionibacterium acnes; details: 50 mM sodium phosphate pH 6.0
Protocol: The time sterilization test method is as follows. Resuspend the P. acnes 34A strain colony in 0.9% saline to an OD600 of 0.05, which corresponds to 10^7 cfu/mL. The suspension was diluted 10-fold in 50 mM sodium phosphate (pH 6.0) to ˜10^6 cfu/mL. Add 0, 0.5×, 1×, 2× MIC of two-fold serial dilutions of PACL10 to the 34A strain, respectively. Ten-fold serial dilutions (0, 1, 2, 3 log) from the assay were plated on enhanced Clostridium agar (RCA) at each time point and incubated anaerobically at 37° C. for 3 days.

[5] = test system: Propionibacterium acnes; experiment: Minimum bactericidal concentration (MBC) determination, Example 6; type: cell-based; details: listed as #10
Protocol: as §1

B1: PACL403: chimeric lysin, amino acid sequence SEQ ID NO: 271 (protein)
chain: MTFIQAKHHGGHNNPPVTRLVIHATCPDVGYPSASRAGRAVSTAHYFQETTRPASAHYICDISTTVQCLSEETVGYHAPPNSHSIGIEICADGGSHASFSNPAHAYTREQWLSPQVWPAVERAAMLARGICQRHNIPIRRLSIADVKAGKRGICGHNEVSEAFHQSDHDDPGPYFPWDGFIALVNGHSAPSRQEELTVSDGGEVRTPGQQDTKPSVPTPSLTEIGDQDMNGCYYNLNSKTRTYLIFDSRSGFYHEFSQGNGNGPMSPDYVNPIAKGWDTGSWPAISPGHAKVLKAALDKVRKGI
modifications: PACL403
killed biofilm-associated P. acnes: bactericidal activity against biofilm-associated P. acnes [1]
8 µg/mL: MIC of selected lyases relative to Propionibacterium acnes ([2]; clade IA2, strain 10) | MIC of selected lyases relative to Propionibacterium acnes ([2]; clade IA2, strain 17) | MIC of selected lyases relative to Propionibacterium acnes ([2]; clade IA2, strain 33)
16 µg/mL: MIC of selected lyases relative to Propionibacterium acnes ([2]; clade IA1, strain 1) | MIC of selected lyases relative to Propionibacterium acnes ([2]; clade IA1, strain 5) | MIC of selected lyases relative to Propionibacterium acnes ([2]; clade IA1, strain 7) | MIC of selected lyases relative to Propionibacterium acnes ([2]; clade II, strain 34)

B2: PACL10: phage lysin, amino acid sequence SEQ ID NO: 10; 29.4 kDa (protein)
chain: MTFIQAAHHSSGSNLPPTRVVIHATCPELGFPRASAKGRAVSTARYFQSAISGGSAHYVVDVGETVQCLAEDVIAWHAPPNSRSLGIEICADGGSATSFKNPNVRYSRAQWLSPQVWPAVLRAAALTRQMCQKYGIPVTKLSASDLKAGKKGICGHVDVSNAWHQSDHDDPGPDFPWAEFMAAVKGGATNPDELELTVSQFSDLTKRLQGMQEQTHHDLGVVQTKLATMDTVKNPRTGAKWSLKDAIWSIWYYVLENRDRIAALEKKVK
modifications: PACL10
notes: 29.4 kDa
25.6 μg/mL and 0.871 μM: MBC ([5]; clade IA1, strain 1) | MBC ([5]; clade IA1, strain 15) | MBC ([5]; clade IA2, strain 17) | MBC ([5]; clade IB, strain 13)
8 µg/mL: MIC of selected lyases relative to Propionibacterium acnes ([2]; clade IA1, strain 1) | MIC of selected lyases relative to Propionibacterium acnes ([2]; clade IA1, strain 5) | MIC of selected lyases relative to Propionibacterium acnes ([2]; clade IA1, strain 7) | MIC of selected lyases relative to Propionibacterium acnes ([2]; clade IA2, strain 10) | MIC of selected lyases relative to Propionibacterium acnes ([2]; clade IA2, strain 17) | MIC of selected lyases relative to Propionibacterium acnes ([2]; clade IA2, strain 33) | MIC of selected lyases relative to Propionibacterium acnes ([2]; clade II, strain 34)
≤ 2 h: time for cfu/mL to drop below the detection limit ([4]; at 2× MIC 12.8 μg/mL)
≤ 3 h: time for cfu/mL to drop below the detection limit ([4]; at MIC 6.4 μg/mL)
6.4 μg/mL and 0.218 μM: MIC ([3]; clade IA1, strain 1) | MIC ([3]; clade IA1, strain 7) | MIC ([3]; clade IA1, strain 15) | MIC ([3]; clade IA2, strain 10) | MIC ([3]; clade IA2, strain 14) | MIC ([3]; clade IA2, strain 17) | MIC ([3]; clade II, strain 34A) | MBC ([5]; clade II, strain 34A)
12.8 μg/mL and 0.436 μM: MIC ([3]; clade IA1, strain 5) | MIC ([3]; clade IA1, strain 27) | MIC ([3]; clade IA2, strain 31) | MIC ([3]; clade IA2, strain 33A) | MIC ([3]; clade IB, strain 13) | MBC ([5]; clade IA1, strain 5) | MBC ([5]; clade IA1, strain 7) | MBC ([5]; clade IA2, strain 10)
>25.6 μg/mL and >0.871 μM: MBC ([5]; clade IA1, strain 27) | MBC ([5]; clade IA2, strain 14) | MBC ([5]; clade IA2, strain 31) | MBC ([5]; clade IA2, strain 33A)
